Results reported in paper PMC11414720.

Molecular target: TMED2 (overexpressed) (UniProt Q15363)
Assay: SEC; gel filtration of overexpressed protein in octyl-β-glucoside, a harsher detergent

Chain of TMED2 (overexpressed), Q15363 21-201 (receptor; other documents disagree on this pair) (Q15363 21-201): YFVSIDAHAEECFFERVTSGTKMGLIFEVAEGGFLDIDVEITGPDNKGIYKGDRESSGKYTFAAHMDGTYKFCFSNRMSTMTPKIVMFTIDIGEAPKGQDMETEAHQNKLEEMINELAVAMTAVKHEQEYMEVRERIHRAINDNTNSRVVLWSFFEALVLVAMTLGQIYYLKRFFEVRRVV

TMED2 (overexpressed), Q15363 21-201 (receptor; other documents disagree on this pair)
stoichiometry N: 2
